Experiments:
Assay in all cases: FRET or BRET
[1] = target: hRIIβ-RLuc8 (PKA regulatory subunit RIIβ conjugated to mutant Renilla luciferase) (human) (UniProt P31323)
[2] = target: hRIIα-RLuc8 (PKA regulatory subunit RIIα conjugated to mutant Renilla luciferase) (human) (UniProt P13861)
[3] = target: hRIβ-Rluc8 (PKA regulatory subunit RIβ conjugated to mutant Renilla luciferase) (human) (UniProt P31321)
Sequence of hRIβ-Rluc8 (PKA regulatory subunit RIβ conjugated to mutant Renilla luciferase) (human) (P31321 whole entry, change not shown): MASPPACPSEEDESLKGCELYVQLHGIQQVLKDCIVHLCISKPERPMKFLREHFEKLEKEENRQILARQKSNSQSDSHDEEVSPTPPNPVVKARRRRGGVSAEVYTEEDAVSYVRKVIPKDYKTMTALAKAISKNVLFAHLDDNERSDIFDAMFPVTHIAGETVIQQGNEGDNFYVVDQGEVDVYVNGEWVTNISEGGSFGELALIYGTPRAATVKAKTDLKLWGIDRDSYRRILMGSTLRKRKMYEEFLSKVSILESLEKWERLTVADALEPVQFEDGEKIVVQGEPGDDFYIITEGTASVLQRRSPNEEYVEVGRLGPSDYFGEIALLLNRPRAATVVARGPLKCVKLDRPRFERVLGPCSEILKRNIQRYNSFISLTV

Sequence of hRIIα-RLuc8 (PKA regulatory subunit RIIα conjugated to mutant Renilla luciferase) (human) (P13861 whole entry, change not shown): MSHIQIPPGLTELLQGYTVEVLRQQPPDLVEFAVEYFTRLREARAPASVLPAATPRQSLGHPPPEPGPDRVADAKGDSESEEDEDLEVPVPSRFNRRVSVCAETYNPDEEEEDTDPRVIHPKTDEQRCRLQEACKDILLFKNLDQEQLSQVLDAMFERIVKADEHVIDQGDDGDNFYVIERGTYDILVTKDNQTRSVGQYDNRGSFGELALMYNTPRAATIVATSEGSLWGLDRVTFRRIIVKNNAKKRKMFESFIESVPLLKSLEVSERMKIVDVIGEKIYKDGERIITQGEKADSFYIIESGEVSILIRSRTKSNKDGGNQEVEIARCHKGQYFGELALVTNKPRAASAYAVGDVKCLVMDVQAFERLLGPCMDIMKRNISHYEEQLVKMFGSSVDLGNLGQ
Sequence of hRIIβ-RLuc8 (PKA regulatory subunit RIIβ conjugated to mutant Renilla luciferase) (human) (P31323 whole entry, change not shown): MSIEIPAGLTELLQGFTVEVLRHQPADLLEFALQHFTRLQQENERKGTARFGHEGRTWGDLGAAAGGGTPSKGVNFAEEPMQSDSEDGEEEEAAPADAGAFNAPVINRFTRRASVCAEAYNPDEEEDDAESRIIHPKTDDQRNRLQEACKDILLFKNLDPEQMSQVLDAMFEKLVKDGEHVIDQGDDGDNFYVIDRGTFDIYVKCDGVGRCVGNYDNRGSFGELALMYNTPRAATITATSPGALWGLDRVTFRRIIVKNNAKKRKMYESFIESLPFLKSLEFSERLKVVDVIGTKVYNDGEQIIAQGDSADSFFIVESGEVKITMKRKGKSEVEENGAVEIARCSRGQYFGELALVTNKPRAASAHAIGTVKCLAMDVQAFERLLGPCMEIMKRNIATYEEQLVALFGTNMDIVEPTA

“GFP-hCα (GFP-tagged PKA catalytic subunit Cα) (from UniProt P17612 1-351) (natural protein)” showed a BRET signal left after Fsk/IBMX (percent of the unstimulated sensor) [1] of 28%, a BRET signal left after Fsk/IBMX (percent of the unstimulated sensor) [2] of 25% and a BRET signal left after Fsk/IBMX (percent of the unstimulated sensor) [3] of 75%.

From paper PMC5987717
